{"source": "the supplement of paper PMC9112550", "about": "“Optimization of the antimicrobial peptide Bac7 by deep mutational scanning” (BMC Biology, 2022);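 further: peptides expressed intracellularly from a pBAD plasmid library in pooled LB shake-flask culture, induced with 0.3% L-arabinose, DNA abundance read by NGS, three biological replicates, DESeq2 with apeglm shrinkage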"}
{"system": "Escherichia coli TOP10", "test": "shrunken log2 fold change of peptide-encoding DNA abundance (4.5 h post-induction vs induction); higher = less antimicrobial activity (less host growth inhibition)", "conditions": "time post-induction: 4.5 h; library: site-saturation at positions 5, 18, 19, 20"}
{"sequence": "RRIRNRPPRLPRPRPRPSEQPRP", "shrunken log2 fold change": -0.288}
{"sequence": "RRIRQRPPRLPRPRPRPWVGPRP", "shrunken log2 fold change": -0.0518}
{"sequence": "RRIRLRPPRLPRPRPRPEDIPRP", "shrunken log2 fold change": -0.539}
{"sequence": "RRIRNRPPRLPRPRPRPIVSPRP", "shrunken log2 fold change": -0.00673}
{"sequence": "RRIRFRPPRLPRPRPRPKRRPRP", "shrunken log2 fold change": 0.0555}
{"sequence": "RRIRPRPPRLPRPRPRPPMFPRP", "shrunken log2 fold change": 0.0198}
{"sequence": "RRIRVRPPRLPRPRPRPKYVPRP", "shrunken log2 fold change": -0.163}
{"sequence": "RRIRGRPPRLPRPRPRPGFNPRP", "shrunken log2 fold change": 0.235}
{"sequence": "RRIRLRPPRLPRPRPRPACLPRP", "shrunken log2 fold change": 0.00436}
{"sequence": "RRIRVRPPRLPRPRPRPCIRPRP", "shrunken log2 fold change": -0.198}
{"sequence": "RRIRNRPPRLPRPRPRPFKQPRP", "shrunken log2 fold change": -0.0135}
{"sequence": "RRIRPRPPRLPRPRPRPKRMPRP", "shrunken log2 fold change": 0.139}
{"sequence": "RRIRQRPPRLPRPRPRPTTAPRP", "shrunken log2 fold change": -0.00139}
{"sequence": "RRIRERPPRLPRPRPRPLCRPRP", "shrunken log2 fold change": -0.0964}
{"sequence": "RRIRVRPPRLPRPRPRPHGNPRP", "shrunken log2 fold change": -0.0331}
{"sequence": "RRIRGRPPRLPRPRPRPCDSPRP", "shrunken log2 fold change": 0.0374}
{"sequence": "RRIRRRPPRLPRPRPRPQCPPRP", "shrunken log2 fold change": -0.178}
{"sequence": "RRIRGRPPRLPRPRPRPCNIPRP", "shrunken log2 fold change": -0.284}
{"sequence": "RRIRQRPPRLPRPRPRPRMRPRP", "shrunken log2 fold change": 0.583}
{"sequence": "RRIRDRPPRLPRPRPRPKIPPRP", "shrunken log2 fold change": -0.355}
{"sequence": "RRIRGRPPRLPRPRPRPPWGPRP", "shrunken log2 fold change": 0.651}
{"sequence": "RRIRYRPPRLPRPRPRPLCKPRP", "shrunken log2 fold change": -0.588}
{"sequence": "RRIRNRPPRLPRPRPRPYWFPRP", "shrunken log2 fold change": -0.124}
{"sequence": "RRIRQRPPRLPRPRPRPNRQPRP", "shrunken log2 fold change": 0.0872}
{"sequence": "RRIRWRPPRLPRPRPRPWDQPRP", "shrunken log2 fold change": 0.00408}
{"sequence": "RRIRHRPPRLPRPRPRPDILPRP", "shrunken log2 fold change": -0.0904}
{"sequence": "RRIRARPPRLPRPRPRPGHYPRP", "shrunken log2 fold change": 0.186}
{"sequence": "RRIRTRPPRLPRPRPRPKTEPRP", "shrunken log2 fold change": 0.0183}
{"sequence": "RRIRRRPPRLPRPRPRPSPEPRP", "shrunken log2 fold change": 0.513}
{"sequence": "RRIRVRPPRLPRPRPRPVCPPRP", "shrunken log2 fold change": 0.0825}
{"sequence": "RRIRWRPPRLPRPRPRPSYKPRP", "shrunken log2 fold change": -0.479}
{"sequence": "RRIRDRPPRLPRPRPRPEGMPRP", "shrunken log2 fold change": 0.896}
{"sequence": "RRIRGRPPRLPRPRPRPVDFPRP", "shrunken log2 fold change": 0.408}
{"sequence": "RRIRIRPPRLPRPRPRPVSAPRP", "shrunken log2 fold change": 0.0887}
{"sequence": "RRIRFRPPRLPRPRPRPFMNPRP", "shrunken log2 fold change": -0.03}
{"sequence": "RRIRTRPPRLPRPRPRPTGPPRP", "shrunken log2 fold change": 0.48}
{"sequence": "RRIRFRPPRLPRPRPRPVPKPRP", "shrunken log2 fold change": -0.208}
{"sequence": "RRIRNRPPRLPRPRPRPMMWPRP", "shrunken log2 fold change": -0.0283}
{"sequence": "RRIRVRPPRLPRPRPRPGMTPRP", "shrunken log2 fold change": 0.177}
{"sequence": "RRIRIRPPRLPRPRPRPLFSPRP", "shrunken log2 fold change": -0.423}
{"sequence": "RRIRFRPPRLPRPRPRPSKPPRP", "shrunken log2 fold change": -0.0327}
{"sequence": "RRIRIRPPRLPRPRPRPNEFPRP", "shrunken log2 fold change": -0.295}
{"sequence": "RRIRSRPPRLPRPRPRPDPNPRP", "shrunken log2 fold change": -0.000549}
{"sequence": "RRIRERPPRLPRPRPRPLIPPRP", "shrunken log2 fold change": -0.463}
{"sequence": "RRIRLRPPRLPRPRPRPCRMPRP", "shrunken log2 fold change": -0.0411}
{"sequence": "RRIRWRPPRLPRPRPRPLALPRP", "shrunken log2 fold change": 0.362}
{"sequence": "RRIRCRPPRLPRPRPRPGACPRP", "shrunken log2 fold change": 0.257}
{"sequence": "RRIRERPPRLPRPRPRPNAEPRP", "shrunken log2 fold change": 0.103}
{"sequence": "RRIRWRPPRLPRPRPRPFLAPRP", "shrunken log2 fold change": -0.0712}
{"sequence": "RRIRSRPPRLPRPRPRPVQEPRP", "shrunken log2 fold change": 0.403}
{"sequence": "RRIRRRPPRLPRPRPRPILHPRP", "shrunken log2 fold change": -0.0819}
{"sequence": "RRIRKRPPRLPRPRPRPKADPRP", "shrunken log2 fold change": 0.018}
{"sequence": "RRIRFRPPRLPRPRPRPNFLPRP", "shrunken log2 fold change": -0.277}
{"sequence": "RRIRRRPPRLPRPRPRPATHPRP", "shrunken log2 fold change": 0.434}
{"sequence": "RRIRIRPPRLPRPRPRPNFKPRP", "shrunken log2 fold change": -0.144}
{"sequence": "RRIRERPPRLPRPRPRPCWIPRP", "shrunken log2 fold change": -0.594}
{"sequence": "RRIRMRPPRLPRPRPRPEYWPRP", "shrunken log2 fold change": 0.339}
{"sequence": "RRIRPRPPRLPRPRPRPGQAPRP", "shrunken log2 fold change": -0.0745}
{"sequence": "RRIRARPPRLPRPRPRPTWFPRP", "shrunken log2 fold change": 0.225}
{"sequence": "RRIRARPPRLPRPRPRPMHTPRP", "shrunken log2 fold change": 0.261}
{"sequence": "RRIRVRPPRLPRPRPRPSFHPRP", "shrunken log2 fold change": -0.439}
{"sequence": "RRIRRRPPRLPRPRPRPEEMPRP", "shrunken log2 fold change": 1.38}
{"sequence": "RRIRGRPPRLPRPRPRPKTRPRP", "shrunken log2 fold change": 0.884}
{"sequence": "RRIRCRPPRLPRPRPRPNVFPRP", "shrunken log2 fold change": -0.24}
{"sequence": "RRIRERPPRLPRPRPRPIAPPRP", "shrunken log2 fold change": 0.235}
{"sequence": "RRIRVRPPRLPRPRPRPVINPRP", "shrunken log2 fold change": -0.712}
{"sequence": "RRIRCRPPRLPRPRPRPQTYPRP", "shrunken log2 fold change": -0.727}
{"sequence": "RRIRLRPPRLPRPRPRPPFYPRP", "shrunken log2 fold change": -0.185}
{"sequence": "RRIRVRPPRLPRPRPRPSLHPRP", "shrunken log2 fold change": -0.415}
{"sequence": "RRIRNRPPRLPRPRPRPYSKPRP", "shrunken log2 fold change": -0.926}
{"sequence": "RRIRERPPRLPRPRPRPCMAPRP", "shrunken log2 fold change": -0.336}
{"sequence": "RRIRQRPPRLPRPRPRPHREPRP", "shrunken log2 fold change": -0.152}
{"sequence": "RRIRIRPPRLPRPRPRPIEMPRP", "shrunken log2 fold change": -0.00843}
{"sequence": "RRIRMRPPRLPRPRPRPTDKPRP", "shrunken log2 fold change": 0.851}
{"sequence": "RRIRVRPPRLPRPRPRPCPLPRP", "shrunken log2 fold change": -0.418}
